Data taken from publication PMC11568366, “Phosphorylation of cytochrome c at tyrosine 48 finely regulates its binding to the histone chaperone SET/TAF‐Iβ in the nucleus” (Protein Science : A Publication of the Protein Society, 2024).

Key:
[1] = biological target: T1, SET/template-activating factor Iβ (SET/TAF-Iβ), recombinant (UniProt Q01105-2 1-277); assay: ITC; 300 μM reduced Cc injected (17 x 2.91 μL) into 30 μM SET/TAF-Iβ (as homodimer) in the cell, 25°C, 10 mM sodium phosphate pH 7.4; WT fitted with two cooperative binding sites, mutants with independent binding sites; conditions: both partners purified
T1 construct: SET/TAF-Iβ, the beta isoform of SET; construct in pET28a(+) from González-Arzola et al. 2015; Concentration is expressed as the functional homodimer

[2] = biological target: T1, SET/template-activating factor Iβ …; assay: as above; conditions: both partners purified; remark: listed apart in the source

T1 sequence (Q01105 other isoform, or with tags, fused parts or gaps): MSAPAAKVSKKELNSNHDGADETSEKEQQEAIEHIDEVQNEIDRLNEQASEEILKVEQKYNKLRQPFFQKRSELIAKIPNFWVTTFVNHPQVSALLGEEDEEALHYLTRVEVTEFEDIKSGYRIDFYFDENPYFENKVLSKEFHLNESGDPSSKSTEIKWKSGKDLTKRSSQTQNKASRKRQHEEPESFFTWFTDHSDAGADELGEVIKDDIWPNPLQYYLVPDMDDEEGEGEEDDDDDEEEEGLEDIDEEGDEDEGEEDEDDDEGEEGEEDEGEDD

B1: wild-type cytochrome c (reduced) (natural protein)
chain: not shown
notes: cytochrome c, human; Hemeprotein, kept reduced with sodium ascorbate in ITC and NMR; Construct and expression as in cited earlier work (Moreno-Beltrán et al. 2015; Olteanu et al. 2003); also called WT Cc; Cc
dH1 (first site) [1]: 1.3 kcal/mol | dH2 (second site) [1]: 6.9 kcal/mol | stoichiometry N [2]: 2 Cc per SET/TAF-Iβ homodimer

B2: Y48D cytochrome c phosphomimetic mutant (reduced) (natural protein)
chain: not shown
notes: cytochrome c, human; Hemeprotein, reduced in ITC; also called Y48D Cc
Kd [1]: 22 µM | dH [1]: -7.5 kcal/mol | stoichiometry N [1]: 2.2

B3: Y48E cytochrome c phosphomimetic mutant (reduced) (natural protein)
chain: not shown
notes: cytochrome c, human; Hemeprotein, reduced in ITC; also called Y48E Cc
Kd [1]: 110 µM | dH [1]: -19 kcal/mol | stoichiometry N [1]: 2.3
